# Assay results reported in the RNAGym collection of RNA variant scans (doi:10.7554/elife.80360).
# B1: Hairpin Ribozyme (parent)
# chain: GUCCUCUUUCACGUGCGCGUGAAAGAGAGAAGUGAACCAGAGAAACACACGUUGUGGUAUAUUACCUGGUA
# Variants of: B1
# Assay: self-cleavage, relative activity (ratio to wild type); higher = more cleavage; co-transcriptional
row,Variant,self-cleavage
1,C4G A31C,0.176
2,C4G A31U,0.183
3,C4G A35G,0.153
4,C4G A36C,0.103
5,C4G A36U,0.118
6,C4G A39C,0.193
7,C4G A39G,0.0945
8,C4G A41G,0.219
9,C4G A43G,0.121
10,C4G A44G,0.0493
11,C4G A44U,0.164
12,C4G A45C,0.0824
13,C4G A47G,0.168
14,C4G A49G,0.101
15,C4G A49U,0.183
16,C4G A64G,0.124
17,C4G A64U,0.142
18,C4G C6G,0.17
19,C4G C6U,0.0456
20,C4G C10U,0.198
21,C4G C12A,0.071
22,C4G C16G,0.201
23,C4G C18U,0.284
24,C4G C37A,0.209

row,Variant,self-cleavage
1,C4G C37G,0.168
2,C4G C38U,0.129
3,C4G C46G,0.122
4,C4G C48U,0.146
5,C4G C50A,0.147
6,C4G C66A,0.277
7,C4G C66U,0.178
8,C4G G13A,0.193
9,C4G G15A,0.216
10,C4G G15C,0.212
11,C4G G17C,0.121
12,C4G G17U,0.336
13,C4G G25A,0.156
14,C4G G27A,0.325
15,C4G G29U,0.13
16,C4G G32C,0.115
17,C4G G32U,0.149
18,C4G G40A,0.114
19,C4G G42A,0.194
20,C4G G42U,0.121
21,C4G G54A,0.144
22,C4G G54C,0.139
23,C4G G57A,0.103
24,C4G G69A,0.132

row,Variant,self-cleavage
1,C4G G69U,0.118
2,C4G U8A,0.0905
3,C4G U14A,0.231
4,C4G U14G,0.265
5,C4G U20C,0.135
6,C4G U52A,0.143
7,C4G U52G,0.184
8,C4G U60C,0.224
9,C4G U62C,0.148
10,C4G U62G,0.114
11,C4G U63C,0.112
12,C4G U67G,0.182
13,C4G U70A,0.161
14,C4G U70G,0.219
15,C4U A22C,0.172
16,C4U A23C,0.3
17,C4U A26C,0.144
18,C4U A28C,0.273
19,C4U A31C,0.193
20,C4U A31U,0.104
21,C4U A35C,0.418
22,C4U A41C,0.469
23,C4U A41U,0.71
24,C4U A43U,0.202

row,Variant,self-cleavage
1,C4U A44U,0.162
2,C4U A45U,0.0517
3,C4U A47C,0.0918
4,C4U A47U,0.115
5,C4U A49G,0.0694
6,C4U A59G,0.163
7,C4U A59U,0.113
8,C4U A61C,0.294
9,C4U A61G,0.169
10,C4U A61U,0.0691
11,C4U A71U,0.282
12,C4U C10G,0.264
13,C4U C12A,0.333
14,C4U C16A,0.41
15,C4U C18G,0.349
16,C4U C18U,0.514
17,C4U C37U,0.243
18,C4U C38U,0.234
19,C4U C48U,0.142
20,C4U C65A,0.374
21,C4U C65G,0.0877
22,C4U G13A,0.238
23,C4U G19U,0.312
24,C4U G25A,0.129

row,Variant,self-cleavage
1,C4U G29A,0.107
2,C4U G29U,0.194
3,C4U G32C,0.114
4,C4U G32U,0.0825
5,C4U G34A,0.688
6,C4U G40A,0.147
7,C4U G42C,0.253
8,C4U G51A,0.533
9,C4U G51U,0.194
10,C4U G68A,0.18
11,C4U G68C,0.0882
12,C4U U5C,0.109
13,C4U U5G,0.343
14,C4U U7G,0.235
15,C4U U8A,0.2
16,C4U U9C,0.22
17,C4U U14A,0.376
18,C4U U14C,0.184
19,C4U U14G,0.418
20,C4U U20A,0.281
21,C4U U20C,0.24
22,C4U U53C,0.398
23,C4U U55G,0.157
24,C4U U58G,0.218

row,Variant,self-cleavage
1,C4U U60G,0.299
2,C4U U62A,0.143
3,C4U U67C,0.128
4,C4U U67G,0.143
5,U5A A11U,0.196
6,U5A A22U,0.274
7,U5A A23G,0.377
8,U5A A26U,0.67
9,U5A A30C,0.0813
10,U5A A31C,0.156
11,U5A A31G,0.212
12,U5A A35G,0.559
13,U5A A35U,0.295
14,U5A A36C,0.168
15,U5A A39C,0.139
16,U5A A41C,0.554
17,U5A A44C,0.156
18,U5A A44G,0.121
19,U5A A45C,0.161
20,U5A A49G,0.103
21,U5A A59G,0.213
22,U5A A64G,0.154
23,U5A C6G,0.192
24,U5A C6U,0.228

row,Variant,self-cleavage
1,U5A C12U,0.314
2,U5A C18A,0.525
3,U5A C18G,0.306
4,U5A C37A,0.0853
5,U5A C37U,0.291
6,U5A C38U,0.0767
7,U5A C46G,0.232
8,U5A C48U,0.104
9,U5A C50A,0.161
10,U5A C50G,0.0755
11,U5A C66A,0.247
12,U5A G13A,0.139
13,U5A G15C,0.33
14,U5A G17U,0.395
15,U5A G19C,0.245
16,U5A G19U,0.312
17,U5A G21U,0.322
18,U5A G25U,0.279
19,U5A G29C,0.153
20,U5A G32C,0.0597
21,U5A G32U,0.153
22,U5A G34A,0.435
23,U5A G34C,1.27
